Values of other authors in article PMC7143316.

Experiments:
Kv1.1 (Homo sapiens) = Kv1.1 (Homo sapiens) (UniProt Q09470)
Kv1.3 (Homo sapiens) = Kv1.3 (Homo sapiens) (UniProt P22001)
Kv1.2 (Homo sapiens) = Kv1.2 (Homo sapiens) (UniProt P16389)
Chain of UniProt P16389 (P16389 whole entry): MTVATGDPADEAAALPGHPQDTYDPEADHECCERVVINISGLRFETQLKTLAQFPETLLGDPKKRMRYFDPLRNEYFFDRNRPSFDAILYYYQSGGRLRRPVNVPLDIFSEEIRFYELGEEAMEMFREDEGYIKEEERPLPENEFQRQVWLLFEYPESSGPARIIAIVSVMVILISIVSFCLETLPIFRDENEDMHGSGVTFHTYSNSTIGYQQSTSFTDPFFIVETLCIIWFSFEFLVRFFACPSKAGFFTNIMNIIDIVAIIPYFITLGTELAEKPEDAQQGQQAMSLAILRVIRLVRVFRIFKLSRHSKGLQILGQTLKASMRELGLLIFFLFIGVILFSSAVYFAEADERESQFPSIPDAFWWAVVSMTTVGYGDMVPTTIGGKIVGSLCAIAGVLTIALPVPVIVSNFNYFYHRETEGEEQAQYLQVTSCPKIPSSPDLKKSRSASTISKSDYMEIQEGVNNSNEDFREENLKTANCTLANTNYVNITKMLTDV

Chain of UniProt P22001 (P22001 whole entry): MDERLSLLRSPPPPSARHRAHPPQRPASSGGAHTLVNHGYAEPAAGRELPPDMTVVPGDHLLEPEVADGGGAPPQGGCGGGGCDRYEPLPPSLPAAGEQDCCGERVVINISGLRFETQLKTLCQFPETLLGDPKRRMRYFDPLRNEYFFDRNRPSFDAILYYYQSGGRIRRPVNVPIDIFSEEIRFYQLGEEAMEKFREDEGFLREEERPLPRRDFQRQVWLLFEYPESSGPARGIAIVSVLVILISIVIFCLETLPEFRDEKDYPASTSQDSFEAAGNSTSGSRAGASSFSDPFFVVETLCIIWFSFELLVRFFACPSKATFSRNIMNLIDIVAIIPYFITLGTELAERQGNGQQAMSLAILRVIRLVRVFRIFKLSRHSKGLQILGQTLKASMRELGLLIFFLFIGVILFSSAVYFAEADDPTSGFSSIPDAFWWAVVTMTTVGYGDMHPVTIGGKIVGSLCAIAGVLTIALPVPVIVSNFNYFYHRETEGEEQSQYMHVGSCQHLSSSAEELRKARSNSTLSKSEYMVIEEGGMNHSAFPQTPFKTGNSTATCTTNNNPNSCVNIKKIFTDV
Chain of UniProt Q09470 (Q09470 whole entry): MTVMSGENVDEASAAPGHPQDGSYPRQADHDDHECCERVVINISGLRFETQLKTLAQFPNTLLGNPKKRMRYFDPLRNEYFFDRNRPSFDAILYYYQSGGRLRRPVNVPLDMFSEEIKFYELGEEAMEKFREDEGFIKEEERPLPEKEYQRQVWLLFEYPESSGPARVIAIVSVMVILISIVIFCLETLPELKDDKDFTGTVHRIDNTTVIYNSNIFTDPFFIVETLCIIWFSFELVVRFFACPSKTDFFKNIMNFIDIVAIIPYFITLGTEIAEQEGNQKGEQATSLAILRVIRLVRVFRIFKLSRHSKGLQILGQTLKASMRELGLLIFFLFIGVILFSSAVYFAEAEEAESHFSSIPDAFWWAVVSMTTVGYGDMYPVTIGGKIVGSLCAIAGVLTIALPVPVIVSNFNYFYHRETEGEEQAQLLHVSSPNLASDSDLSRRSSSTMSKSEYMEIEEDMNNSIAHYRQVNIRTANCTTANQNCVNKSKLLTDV

Substance: BgK (from UniProt P29186)
- Kd (Kv1.1 (Homo sapiens)): 6 nM
- Kd (Kv1.3 (Homo sapiens)): 10 nM
- Kd (Kv1.2 (Homo sapiens)): 15 nM
